Data taken from patent US20220195015A1 (published 2022).

What was measured:
[1] = target: SARS-CoV-2 RBD (wild type) (SARS-CoV-2, UniProt P0DTC2 319-539); test: ELISA on coated RBD
[2] = target: SARS-CoV-2 spike receptor binding domain (RBD), S protein residues 319-539 (SARS-CoV-2, UniProt P0DTC2 319-539); test: ELISA on coated RBD

| Binder | EC50 [1] [ng/mL] | EC50 [2] [ng/mL] |
| --- | --- | --- |
| C095 (antibody, V domains shown) VH: VQLVEAGGGVVQPGRSLRLSCAASGLAFSIYGMHWVRQAPGKGLEWVAIVAQDGSKKYYADSVKGRFTISRDNSKNTLYLEMNSLRTEDTAVYYCVKEGRPSDTVVVVAFDYWGQGSLVTVSS VL: DIQLTQSPSSLSASVGDRVTITCRASQSISNYLNWYQQKPGKAPKVIIYAASSLQSGVPSRFSGSGSGTDFTLTISSLQPEDFATYYCQQSHSIPRTFGQGTKVEIK | 1.1 |  |
| C096 (antibody, V domains shown) VH: EVQLVESGGGLVKPGGSLRLSCVASGFTFRNAWMNWVRQAPGKGLEWVGRIKANSDGGTIDYAEPVQGRFTISREDSRNSLYLQMNSLKTEDTAVYYCTTGPQYDDFGHSYIVDSWGPGTLVTVSS VL: DIVMTQSPLSLPVTLGEPASISCRSSQSLLHSNGFHFLEWYLQKPGQSPQLLIYVGSNRASGVPDRFSGSGSGTDFTLKISRVEAEDVGVYYCMQTLQTPLTFGGGTKVEIK | 5.18 |  |
| C080 (antibody, V domains shown) VH: EVQLVQSGAEVKKPGESLNISCKASGYSFTIYWIAWVRQLPGKGLEWMGIIYPGDSDTRYSPSFQGQVTISADKSISTAYLQWRSLKASDSAVYYCARGVAVDWYFDLWGRGTLVTVSS VL: QSVLTQPPSVSGAPGQRVTISCAGSSSNIGAGFDVYWYQQLPGTAPKLLIYGNNNRPSGVPDRFSGSKSGTSASLAITGLQAEDEADYYCQSSGSVLSDLYVFGTGTKVTVL | 1.97 |  |
| C564 (antibody, V domains shown) VH: EVQLLESGGGLVQPGTSLRLSCAASGFTFSSYAMSWVRQAPGKGLEWVSAISSSGGSTYYADSVKGRFTISRDNSKNTLYLHMNSLRAEDTAVYYCATERIAVAGTRMYNWFDPWGQGTLVTVSS VL: DIQMTQSPSSLSASVGDRVTLTCRASQSISSYLNWYQQKPGKAPNLLIYAASSLQSGVPSRFSGSGSGTDFTLTISSLQPEDFATYYCQQSYSAPPWTFGQGTKVEIK | 14.6 |  |
| C521 (antibody, V domains shown) VH: EVQLVESGGGLVRPGGSLTLSCVASGFTVGSNFMSWVRQAPGKGLEWVSLIYNSGGTHYADSVKGRFTISRDRSKNTLYLQMNSLRAEDTAIYYCANHGYYYYMDVWGKGTTVTVS VL: QSALTQPASVSGSPGQSITISCTGTGSDIGAYNYVSWHQHHPGKAPKLIIYDVSNRPSGVSNRFSGSKSGNTASLTISGLQAEDEADYYCTSYTNTTTPWVFGGGTKVTVL | 6.9 |  |
| C097 (antibody, V domains shown) VH: QVQLQESGPGLVKPSQTLSLTCTVSGGSISSGPYYWSWIRQHPGKGLEWIGYIYYSGSTYYNPSLKSRVTISVDTSKKQFSLNLNSVTAADTAVYYCARVWQYYDSTGSFDYWGQGTLVTVSS VL: DIVMTQSPLSLPVTPGEPASISCRSSRGLLHSNGYNYLDWYLQKPGQSPQLLIYLGSNRASGVPDRFSGSGSVTDFTLNISRVEAEDVGVYYCMQALQTPFTFGPGTKVDIK | 3.45 |  |
| C213 (antibody, V domains shown) VH: EVQLVESGGGLVKPGGSLRLSCAASGFTFSSYSMNWVRQAPGKGLEWVSSISSSSSYIYYADSVKGRFTISRDNAKNSLYLQMNSLRAEDTAVYYCARVQVGARGWVDYWGQGTLVTVSS VL: NFMLTQPHSVSESPGKTVTISCTRSSGSIASNYVQWYQQRPGSAPTTVIYEDNERPSGVPDRFSGSIDSSSNSASLTISGLKTEDEADYYCQSYDRINWVFGGGTKLTVL | 2.02 |  |
| C217 (antibody, V domains shown) VH: EVQLVESGGGLVKPGGSLRLSCAASGFTFSSYSMNWVRQAPGKGLEWVSFISSRSSYIYYADSVKGRFTISRDNAKNSLYLQMNSLRAEDTAVYYCARVQVGARGWVDYWGQGTLVTVSS VL: NFMLTQPHSVSESPGKTVTISCTRSSGSIASNYVQWYQQRPGSAPTTVIYEDNQRPSGVPDRFSGSIDSSSNSASLTISGLKTEDEADYYCQSYDSINWVFGGGTKLTVL | 2.28 |  |
| C043 (antibody, V domains shown) VH: QLVQSGPEVKKPGTSVKVSCKASGFTFYNSAVQWVRQARGQRLEWVGWIVVGSGNTDYAQKFQERVTMTRDLSTNTAYMEVNSLRSEDTAVYYCAAPYCSGGTCLDGFDIWGQGTMVTVSS VL: EIVLTQSPGTLSLSPGERGTLSCRASQSVRSNYLAWYKQRPGQAPRLLVYGASSRATGIPDRFSGSGSGTDFTLTISRLEPEDFAVYYCQQYGSSPWTFGQGTKVEIK | 12.1 |  |
| C035 (antibody, V domains shown) VH: EVQLVESGGGLVQPGGSLRLSCAASGFIFSSYWMTWVRQAPGKGLEWVASIKYNGNERNYVDSVKGRFTISRDNARNSLFLQLNNLGAEDTAVYYCARQPESTIWYYFDYWGQGTLVTVSS VL: SYELTQPPSVSVSPGQTARVTCSGHALPDQYTYWYQQRPGRAPVLVIYVNNQRPSGIPDRFSATTSGTTVTLTISGVQAEDEADYYCQSADSSGSYVVFGGGTKLTVL | 15.2 |  |
| C073 (antibody, V domains shown) VH: QLQLQESGPGLVKPSETLSLTCTVSGASIPSSTSYWGWIRQPPGKGLEWIGSIYYTGSTYYNPSLKSRVTISVDTSKNHFSLILSSVTAADTAVYYCARRSITLAGRDCLDFWGQGTLVTVSS VL: DIQLTQSPSSLSASVGDRLTITCRASQSITTSLNWYQQKPGKAPKLLIYAASSLQSGVPSRFSGSGSGTDFTLAISSLQPEDFATYYCQQSYIPLLTFGGGTKVDIK | 20.6 |  |
| C543 (antibody, V domains shown) VH: QVQLVESGGGVVQPGRSLRLSCTASGFTFSTAGMHWVRQAPGKGLEWVAVISYDGSNKDYADSVKGRFTISRDNSKSTLYLQMNSLRPEDTAVYYCAKDTPGGDDIMTGWGLYGMDVWGQGTTVTVSS VL: DIQMTQSPSSLSASVGDRVTITCRASQSISSYLNWYHQKPGKAPKLLIYAAISLQSGVPSRFSGSGFGTDFTLTISSLQPEDFAIYYCQQSYSTPWTFGQGTKVEIK |  | 1.28 |
| C091 (antibody, V domains shown) VH: QVQLVQSGAEVKKPGSSVKVSCKASGGTFSSYTISWVRQAPGQGLEWMGRIIPILGIANYAQKFQGRVTITADKSTSTAYMELSSLRSEDTAVYYCARDSGYSGYGSTYYMDVWGKGTTVTVSS VL: QSVLTQPPSVSGAPGQRVTISCTGSSSNIGAGYDVHWYQQLPGTAPKLLIYGNSNRPSGVPDRFSGSKSGTSASLAITGLQAEDEADYYCQSYDSSLSGSVFGTVTKVTVL | 89.5 |  |
| C092 (antibody, V domains shown) VH: QVQLVQSGAEVKKPGSSVKVSCKASGGSFTNHFISWVRQAPGQGLEWMGRIIPILGTANYAQNFQGRVMMTADKSTSTAYMELSSLRSEDTAVYYCARDSGYSGYGSTYYMDVWGKGTTVTVSS VL: QSVLTQPPSVSGAPGQRVTISCTGSNSNIGAGYDVHWYQQLPGAAPKLLIYGNNNRPSGVPDRFSGSKSDTSASLAITGLQVEDEADYYCQSYDSSLSDSVFGSGTKVTVL | 7.07 |  |
| C098 (antibody, V domains shown) VH: EVQLVESGGGLIQPGGSLRLSCAASGFTVSSNYMSWVRQAPGKGLEWVSVIYSGGSTYYADSVKGRFTISRDNSKNTLYLQMNSLRAEDTAVYYCARDLYSSGGTDIWGQGTMVTVSS VL: not shown | 7.7 |  |
| C099 (antibody, V domains shown) VH: EVQLVESGGGLIQPGGSLRLSCAASGITVSSNYMSWVRQAPGKGLEWVSVMYAGGSTFYADSVKGRFTISRDDSKNTLFLQMNSLRAEDTAIYYCARDLYSSGGTDIWGQGTMVTVSS VL: EIVLTQSPGTLSLSPGERATLSCRASQSIGSSYLAWYQQKPGLAPRLLIYGASRRATGIPDKFSGSGSGADFTLTISRLEPEDFAVYYCQQYGSSPGTFGQGTKVEIK | 2.45 |  |
| C563 (antibody, V domains shown) VH: EVQLVESGGGLVKPGGSLRLSCAASGFPFTNAWMSWVRQAPGKGLEWVGHIKDYTDGGTTDYAAPVKGKFTISRDDSKNTLYLHMNSLKTEDTAVYYCSTVGSYYYDSRGPTSDAFDIWGQGTLVTVSS VL: not shown | 1.19 |  |
| C077 (antibody, V domains shown) VH: QVQLVQSGAEVKKPGASVKVSCKASGYTFTSYAMHWVRQAPGQRLEWMGWINTDNGNTKYSQKFQGRVTITRDTSASTAYMELSSLRSEDTAVYYCAREGALTNWFDPWGQGTLVTVSS VL: SYELTQPPSVSVAPGQTARIPCGGNNIGSKSVHWYQQKPGQAPVLVVYDDSDRPSGIPERFSGSNSGNTATLTISRVEAGDEADYYCQVWDSSSDLHVVFGGGTKLTVL | 45.9 |  |
| C044 (antibody, V domains shown) VH: EVQLVESGGGLVQPGGSLRLSCAASGFTFSSYSMNWVRQAPGKGLEWVSYISSSSSTIYYADSVKGRFTISRDNAKNSLYLQMNSLRDEDTAVYYCAREAHDGALTDYGDYLNWFDPWGQGTLVTVSS VL: SYELTQPPSVSVAPGKTARITCGGNNIGSKSVHWYQQKPGQAPVLVIYYDSDRPSGIPERFSGSNSGNTATLTISRVEAGDEADYYCQVWDSSSDHLYWVFGGGTKLTVL | 1820 |  |
| C045 (antibody, V domains shown) VH: EVQLVESGGGLVQPGGSLRLSCAASGFTFSTYSMNWVRQAPGKGLEWVSYISSSSSTIHYADSVKGRFTISRDNAKNSLYLQMNSLRDEDTAVYYCAREAHDGALTDYGDYLNWFDPWGQGTLVTVSS VL: SYELTQPPSVSVAPGKTARITCGGTNIGSKNVHWYQQKPGQAPVLVIYYDNDRPSGIPERFSGSNSGNTATLTISRVEAGDEADYYCQVWDTTSDHFYWVFGGGTKLTVL | 7 |  |
| C522 (antibody, V domains shown) VH: EVQLVESGGGLIQPGGSLRLSCAASEFIVSRNYMSWVRQAPGKGLEWVSVIYSGGSTFYADSVKGRFTISRDESKNTLYLQMNSLRAEDTAIYYCARDRGGGILDYWGQGTLVTVS VL: DIQMTQSPSSLSASVGDRVTITCQASQDINIFLNWYQQKPGKAPKLLIYDASSLETGVPSRFSGSGSGTDFTFTISSLQPEDFATYYCQQYGNLPKYTFGQGTKLEIK | 0.93 |  |
| C094 (antibody, V domains shown) VH: QVQLQESGPGLVKPSETLSLTCNVSGVSISTDYWSWIRQPPGKGLEWIGYIYYSGNTKDYNPSLKSRVTISVDTSKNQFSLMLSSVTAADTAVYYCARHYDILTSLSWFDPWGQGTLVTVSS VL: QSVLTQPPSVSAAPGQKVTISCSITNSNLGNIYVSWYQQLPGTAPKLLIYGNNKRPSGIPDRFSGSKSGTSATLGITGLQTGDEAHYYCGTWDSSLSANWVFGGGTKLTVL | 1.67 |  |
